The text below walks through data of US20180346592A1.

Changes are numbered by the printed parent chain.

Test [1] has as its target GPC3 on the surface of hepatic cancer cell lines (SK-Hep1-GPC3 transfectant, HepG2, Huh7, Hep3B, SNU398) (human) (UniProt P51654). The test can be described thus: FACS, SK-Hep1-GPC3 #9 cells, 1 ug antibody; upper right panel. Background: In flow cytometry, cells or beads pass a laser one at a time.
For test [2] the target is unchanged. The test can be described thus: FACS, HepG2 cells, 1 ug antibody; upper right panel (Synthetic library).
Test [3] has the same target. Description: FACS, SK-Hep1-GPC3 #9 cells, 1 ug antibody; lower left panel.
Test [4] shares this target. The test can be described thus: FACS, HepG2 cells, 1 ug antibody; lower left panel (Human naive library).

B1: clone GS010 (scFv, V domains shown)
VH: EVQLLESGGGLVQPGGSLRLSCAASGFTFSNYSMSWVRQAPGKGLEWVSVISPSSGSIYYADSVKGRFTISRDNSKNTLYLQMNSLRAEDTAVYYCARYRVRQLKHTRSYADAMDVWGQGTLVTVSS
VL: QSVLTQPPSASGAPGQRVTISCSGSSSNIGSNAVSWYQQLPGTAPKLLIYANSHRPSGVPDRFSGSKSGTSASLAISGLRSEDETDYYCASWDSSLSGYVFGGGTKLTVLG
Take B1: the Mean, FL2-H in test [1] was determined as 4.53; in test [2] it was 4.72.

B2: clone GS015 (scFv, V domains shown)
VH: EVQLLESGGGLAQPGGSLRLSCAASGFTFSDYSMSWVRQAPGKGLEWVSAISPDGGSKYYADSVKGRFTISRDNSKNTLYLQMNSLRAEDTAVYYCARFRVIKLRAGWYSANGMDVWGQGTLVTVSS
VL: B1 VL with A13T, S31N, A33D, A51Y, H54K, T85A, A90G, S91A, S94D, S97N
Take B2: the Mean, FL2-H was determined as 5.34 in test [1] and 3.64 in test [2].

B3: clone GS004 (scFv, V domains shown)
VH: EVQLLESGGGLVQPGGSLRLSCAVSGFTFSNYSMSWVRQAPGKGLEWVSAISPGSSNKYYADSVKGRFTISRDNSKNTLYLQMNSLRAEDTAVYYCARYRVWAHSASSSYSNAMDVWGQGTLVTVSS
VL: B1 VL with A13T, S31N, A33D, A51S, N52D, H54Q, T85A, A90G, S94D, S97N
Turning to B3, the Mean, FL2-H amounted to 4.11 in test [1] and 4.38 in test [2].

B4: clone GS014 (scFv, V domains shown)
VH: EVQLLESGGGLVQPGGSLRLSCAASGFTFSNYAMSWVRQAPGKGLEWVSVISPNSGSNTYYADSVKGRFTISRDNSKNTLYLQMNSLRAEDTAVYYCARPRILRRRVDHSYSYAMDVWGQGTLVTVSS
VL: B1 VL with A13T, S23T, S31N, A33Y, A51S, T85A, A90G, S91T, S94Y, F101L
For B4, the Mean, FL2-H came out at 4.39 in test [1] and 5.66 in test [2].

B5: clone GS002 (scFv, V domains shown)
VH: EVQLLESGGGLVQPGGSLRLSCAASGFTFSGYSMSWVRQAPGKGLEWVSSISPGGSSTYYADSVKGRFTISRDNSKNTLYLQMSSLRAEDTAVYYCARYRVWHMTTGDYYSNAMDVWGQGTLVTVSS
VL: QSVLTQPPSASGTPGQRVTISCTGSSSNIGSNAVSWYQQLPGTAPKLLIYDDNKRPSGVLDRFSGSKSGTSASLAISGLRSEDEADYYCGTWDDSLSGYVFGGGTKLTVLG
Consider B5, for which the Mean, FL2-H in test [1] amounted to 4.17; in test [2] it was 4.71.

B6: clone GX263 (scFv, V domains shown)
VH: EVQLVESGGGLVKPGGSLRLSCAASGFTFSSYSMNWVRQAPGKGLEWVSSISSSSSYIYYADSVKGRFTISRDNAKNSLYLQMNSLRAEDTAVYYCARVTPYYYYGMDVWGQGTTVTVSS
VL: QSVVTQPPSVSAAPGQKVTISCSGSSSNIGNNYVSWYQQLPGTAPKLLIYDSNKRPPGIPDRFSGSKSGTSATLGITGLQTGDEADYYCGAWDSSLSAVVFGGGTKLTVLG
On to B6, for which the Mean, FL2-H in test [3] was found to be 3.71; in test [4], 6.06.

B7: clone GN328 (scFv, V domains shown)
VH: EVQLVESGGGLVQPGGSLRVSCAASGFTFSTAWMDWVRQAPGKGLEWVANINPDGSEKHYVDSVKGRFTVSRDNAKNSVYLHMNNLRAEDTAVYYCSKALDYWGQGTTVTVSS
VL: DIQMTQSPSTLSASVGDRVTITCRASQNINTWLAWYQQKPGKAPEVLIYEASSLESGVPPRFSGSGSGTEFTLTISSLQPDDSATYYCQQYNTYSPTFGQGTKLEIKR
For B7, the results for the Mean, FL2-H in test [3] and in test [4] were 4.17 and 4.24, respectively.

B8: clone GX247 (scFv, V domains shown)
VH: QVQLVQSGAEVKKPGASVKVSCKASGYTFTSYYMHWVRQAPGQGLEWMGIINPSGGSTSYAQKFQGRVTMTRDTSTSTVYMELSSLRSEDTAVYYCARTRKGSGYSYGYGMDVWGQGTTVTVSS
VL: SYELTQPPSVSVSPGQTASITCSGDKLGNKYVSWYQQKPGQSPVLVIYQDNKRPSGIPERFSGSNSGNTATLTISGTQAMDEAGYYCQTWDSSVVFGGGTKLTVLG
In the case of B8, the Mean, FL2-H came out at 6.07 in test [3] and 5.53 in test [4].

B9: clone GN414 (scFv, V domains shown)
VH: QVQLVQSGAEVKKPGASVKVSCKASGYTFSTYGITWVRQAPGQGLEWMGRITPNNGVTDYAQKFQGRVTMTRDTSISTAYMELSSLRSDDSAVYYCAREIGSSSWKLLDPWGQGTMVTVSS
VL: QAVLTQPSSVSVSPGQTASITCTGNSNNVGYEGAAWVQQYQGHPPKLLSDRNHNRPSGISERFSASRSGNTASLTITGLQSEDEADYYCSAWDSSLSEWVSGGGTKLTVLG
In the case of B9, the values for the Mean, FL2-H in test [3] and in test [4] were 3.75 and 6.9, respectively.

B10: clone GX184 (scFv, V domains shown)
VH: QLQLQESGPGLVKPSETLSLTCAVSGGSISSSNNYWGWIRQPPGKGLEWIGSIFYSGSTYYNPSLKSRVTISVDTSKNQFSLKLSSVTAADTAVYYCARLPTGTPGFYFDYWGQGTLVTVSS
VL: SYELTQPPSVSKGLRQTATLTCTGNSNNVGNQGAAWLQQHQGHPPKLLSYRNNNRPSGISERFSASRSGNTASLTITGLQPEDEADYYCSAWDSSLSAWVFGGGTKLTVLG
Regarding B10, the figures for the Mean, FL2-H in test [3] and in test [4] were 3.99 and 5.39, respectively.

B11: clone GS006 (scFv, V domains shown)
VH: EVQLLESGGGLVQPGGSLRLSCAASGFTFSGYSMSWVRQAPGKGLEWVSAISPGGGSKYYADSVRGRFTVSRDNSKNTLYLQMNSLRAEDTAVYYCARYRVQKSAKNVYSSNGMDVWGQGTLVTVSS
VL: QSVLTQPPPASGTPGQRVTISCSGSSSNIGNNAVNWYQQLPGTAPKLLIYYDSNRPSGVPDRFSGSKSGTSASLAISGLRSEDEADYYCGAWDSSLSAYVFGGGTKLTVLG
On to B11, for which the Mean, FL2-H in test [1] was found to be 3.65; in test [2], 3.41.
